Assay [1] concerns the target CD3ε/δ (SPR analyte) (UniProt P07766). The assay can be described thus: SPR.
The target is the same in assay [2]. Description: SPR, antibody captured by anti-human Fc.
The target is the same in assay [3]. The assay can be described thus: SPR, antibody captured by anti-human Fc. This is another data set of the same source.

Changes are numbered by the printed parent chain.

CD3ε/δ (SPR analyte), sequence (P07766 23-126, stated change not applied, chain 1 of 2): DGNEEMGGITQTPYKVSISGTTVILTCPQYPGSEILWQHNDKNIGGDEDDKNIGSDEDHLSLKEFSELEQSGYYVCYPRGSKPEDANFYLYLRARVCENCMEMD
CD3ε/δ (SPR analyte), sequence (P04234 22-105, stated change not applied, chain 2 of 2, further chain): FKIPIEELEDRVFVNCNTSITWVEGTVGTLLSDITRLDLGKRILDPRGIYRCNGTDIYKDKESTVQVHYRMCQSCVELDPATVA

B1: humanized sp34 scFv BG561P (scFv-Fc) (Fc fusion, not shown: a dimerising Fc or GST)
scFv: EVQLVESGGGLVQPGGSLRLSCAASGFTFNTYAMNWVRQAPGKGLEWVARIRSKYNNYATYYADSVKDRFTISRDDAKNSLYLQMNSLRAEDTAVYYCVRHGNFGNSYVSWFAYWGQGTLVTVSSGGGGSGGGGSGGGGSEIVLTQSPATLSVSPGERATLSCRSSTGAVTTSNYANWVQQKPGQAPRGLIGGTNKRAPGIPARFSGSLSGDEATLTISSLQSEDFAVYYCALWYSNLWVFGGGTKVEIK
Consider B1, for which, in the assay with CD3ε/δ (SPR analyte) [1], the Kd was 0.0259 µM, the koff came to 0.00188 s⁻¹ and the kon came to 72500 M⁻¹ s⁻¹.

B2: chimeric sp34 (ch-sp34) (antibody, V domains shown)
VH: EVQLVESGGGLVQPKGSLKLSCAASGFTFNTYAMNWVRQAPGKGLEWVARIRSKYNNYATYYADSVKDRFTISRDDSQSILYLQMNNLKTEDTAMYYCVRHGNFGNSYVSWFAYWGQGTLVTVSS
VL: QAVVTQESALTTSPGETVTLTCRSSTGAVTTSNYANWVQEKPDHLFTGLIGGTNKRAPGVPARFSGSLIGDKAALTITGAQTEDEAIYFCALWYSNLWVFGGGTKLTVL
B2: in the assay with CD3ε/δ (SPR analyte) [2], the dissociation constant Kd was 0.0271 µM, the koff turned out to be 0.00296 s⁻¹ and the on-rate constant (kon) came out at 109000 M⁻¹ s⁻¹.

B3: humanized sp34 BG53P (antibody, V domains shown)
VH: B2 VH with K15G, K19R, S77A, Q78K, I80S, N87S, K89R, T90A
VL: QAVVTQSPATLSVSPGERATLSCRSSTGAVTTSNYANWVQEKPGQLFTGLIGGTNKRAPGIPARFSGSLSGDEATLTISSLQSEDFAIYFCALWYSNLWVFGGGTKVEIK
As to B3, in the assay with CD3ε/δ (SPR analyte) [2], the Kd turned out to be 0.0254 µM, the koff stood at 0.00252 s⁻¹ and the kon was found to be 99300 M⁻¹ s⁻¹. Besides, in the assay with CD3ε/δ (SPR analyte) [3], the Kd was determined as 0.00962 µM, the koff was 0.00105 s⁻¹ and the kon was 109000 M⁻¹ s⁻¹.

B4: humanized sp34 BG56P (antibody, V domains shown)
VH: B2 VH with K15G, K19R, S77A, Q78K, S79N, I80S, N87S, K89R, T90A, M95V
VL: B3 VL with Q1E, A2I, V4L, E41Q, L46A, F47P, T48R, I88V, F90Y
As for B4, in the assay with CD3ε/δ (SPR analyte) [3], the dissociation constant (Kd) was 0.0182 µM, the koff came to 0.00112 s⁻¹ and the kon was 61600 M⁻¹ s⁻¹. Besides, in the assay with CD3ε/δ (SPR analyte) [1], the Kd amounted to 0.0182 µM, the koff came out at 0.00112 s⁻¹ and the kon came out at 61600 M⁻¹ s⁻¹.

Values taken from US20240301062A1.
